# Source: patent publication US20250043302A1, “MUTATED HYDROXYPHENYLPYRUVATE DIOXYGENASE POLYPEPTIDE, AND CODING GENE AND USE THEREOF” (BEIJING DABEINONG BIOTECHNOLOGY CO., LTD., priority 2021, published 2025)
# Columns and labels:
# [1] = system: Arabidopsis thaliana T1 plants; assay: Isoxaflutole tolerance of transgenic Arabidopsis thaliana T1 plants (spray, bleached leaf area grade, damage score); assay type: in vivo; conditions: Table 11; for Classification and statistics of the grade of pesticide damage Grade 0: number of plants at grade 0; for Classification and statistics of the grade of pesticide damage Grade 1: number of plants at grade 1; for Classification and statistics of the grade of pesticide damage Grade 2: number of plants at grade 2; for Classification and statistics of the grade of pesticide damage Grade 3: number of plants at grade 3; for Scores: pesticide damage score;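 for Scores: Weighted damage index from 0 to 100 where higher means more damage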
# From the text: T1 transformants were initially selected from the untransformed seeds using a glufosinate selection scheme. The Arabidopsis thaliana T1 plants (AsHPPD-02) into which the AsHPPD-02 nucleotide sequence was introduced, the Arabidopsis thaliana T1 plants (AsHPPDm-F372A-02) into which the AsHPPDm-F372A-02 nucleotide sequence was introduced, the Arabidopsis thaliana T1 plants (AsHPPDm-F383W-02) into which the AsHPPDm-F383W-02 nucleotide sequence was introduced, the Arabidopsis thaliana T1 plants (AsHPPDm-F372A-F383W-02) into which the AsHPPDm-F372A-F383W-02 nucleotide sequence was introduced, the Arabidopsis thaliana T1 plants (DBN11726N) into which the control recombinant expression vector DBN11726N was introduced, and the wild-type Arabidopsis thaliana plants (CK) (18 days after sowing) were sprayed respectively with topramezone at three concentrations (100 g ai/ha (four-fold field concentration, 4×), 200 g ai/ha (eight-fold field concentration, 8×), and 0 g ai/ha (water, 0×)), isoxaflutole at three concentrations (140 g ai/ha (two-fold field concentration, 2×), 280 g ai/ha (four-fold field concentration, 4×), and 0 g ai/ha (water, 0×)), and mesotrione at three concentrations (210 g ai/ha (two-fold field concentration, […]), 420 g ai/ha (four-fold field concentration, 4×), and 0 g ai/ha (water, 0×)), to determine the tolerance of Arabidopsis thaliana to the herbicides. The degree of damage caused by the herbicide was measured for each plant according to the proportion of bleached leaf area (the proportion of bleached leaf area=bleached leaf area/total leaf area×100%) 7 days after spraying (7 DAT): the case where there is basically no bleached phenotype is defined as grade 0, the case where the proportion of bleached leaf area is less than 50% is defined as grade 1, the case where the proportion of bleached leaf area is more than 50% is defined as grade 2, and the case where the proportion of bleached leaf area is 100% grade is defined as grade 3.
# According to the method as described above in point 6 of Example 1, the aforementioned Arabidopsis thaliana T1 plants and wild-type Arabidopsis thaliana plants (CK) (18 days after sowing) were sprayed respectively with topramezone at three concentrations (25 g ai/ha (one-fold field concentration, 1×). 100 g ai/ha (four-fold field concentration, 4×), and 0 g ai/ha (water, 0×)), isoxaflutole at three concentrations (35 g ai/ha (half-fold field concentration, 0.5×). 70 g ai/ha (one-fold field concentration, 1×), and 0 g ai/ha (water, 0×)), and mesotrione at three concentrations (52.5 g ai/ha (half-fold field concentration, 0.5×), 105 g ai/ha (one-fold field concentration, 1×), and 0 g ai/ha (water, 0×)) to detect the tolerance of Arabidopsis thaliana to the herbicides.
# According to the method as described above in point 6 of Example 1, the aforementioned Arabidopsis thaliana T1 plants and wild-type Arabidopsis thaliana plants (CK) (18 days after sowing) were sprayed with topramezone at three different concentrations (i.e., 100 g ai/ha (four-fold field concentration, 4×), 200 g ai/ha (eight-fold field concentration, 8×) and 0 g ai/ha (water, 0×)), isoxaflutole at three different concentrations (i.e., 140 g ai/ha (two-fold field concentration, 2×), 280 g ai/ha (four-fold field concentration, 4×) and 0 g ai/ha (water, 0×)), and mesotrione at three different concentrations (i.e., 210 g ai/ha (two-fold field concentration, 2×), 420 g ai/ha (four-fold field concentration, 4×) and 0 g ai/ha (water, 0×)) respectively to detect the herbicide tolerance of Arabidopsis thaliana. […]
# [2] = system: Arabidopsis thaliana T1 plants; assay: Mesotrione tolerance of transgenic Arabidopsis thaliana T1 plants (spray, bleached leaf area grade, damage score); assay type: in vivo; design: Scores: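 damage score 0-100 computed as Σ(N×S)/(T×M)×100 over grades 0-3 with higher meaning more damage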; conditions: Table 12; for Classification and statistics of the grade of pesticide damage Grade 0: number of plants at grade 0; for Classification and statistics of the grade of pesticide damage Grade 1: number of plants at grade 1; for Classification and statistics of the grade of pesticide damage Grade 2: number of plants at grade 2; for Classification and statistics of the grade of pesticide damage Grade 3: number of plants at grade 3; for Scores: pesticide damage score
# Outline: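 T1 transformants selected by glufosinate; 18-day-old plants, with empty-vector and wild-type controls, sprayed with topramezone (25–200 g ai/ha), isoxaflutole (35–280 g ai/ha) or mesotrione (52.5–420 g ai/ha), water as 0×. Bleached leaf area fraction scored at 7 DAT as grades 0–3.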
molecule,measurement,setting,value
"AsHPPDm-A111T-F383W-02: nucleotide sequence encoding Avena sativa HPPD with A111T+F383W; vector DBN11782 (nucleic acid, AsHPPDm-A111T-F383W-02 Nucleotide Sequence, vector DBN11782) DNA: ATGCCACCTACTCCAGCTACAGCTACTGGTGCTGCTGCTGCTGCCGTTACTCCTGAGCACGCTGCCAGGTCATTCCCCAGGGTGGTTCGCGTGAACCCCAGATCTGATAGGTTCCCAGTTCTGAGCTTCCACCATGTTGAGCTGTGGTGCGCTGATGCTGCTTCTGCTGCTGGCAGGTTCTCTTTCGCTCTTGGTGCTCCACTCGCTGCTAGATCTGATCTGTCTACAGGAAATAGCGCTCATGCCTCACTCCTGCTTCGCTCAGGTGCTTTGGCCTTCCTCTTCACCGCTCCATATGCTCCCCCACCTCAGGAGGCTGCTACTGCTGCTACTACAGCCTCCATTCCAAGCTTCTCAGCTGATGCCGCTAGAACCTTCGCTGCTGCTCATGGACTTGCCGTGAGGTCTGTTGGTGTTCGCGTGGCTGATGCTGCTGAGGCTTTCAGAGTTTCCGTTGCCGGCGGAGCTAGGCCAGCTTTCGCTCCTGCTGATTTGGGACATGGTTTCGGCCTGGCTGAGGTTGAGCTTTACGGTGACGTGGTTCTCCGCTTCGTGTCTTACCCAGATGAGACTGACCTGCCTTTCCTTCCCGGCTTCGAGAGAGTTTCCTCTCCTGGTGCCGTGGATTACGGCCTGACAAGGTTCGACCACGTGGTTGGAAACGTTCCCGAGATGGCTCCAGTGATCGATTACATGAAGGGCTTCCTTGGATTCCATGAGTTCGCCGAGTTCACTGCTGAGGACGTGGGAACCACTGAGTCCGGTTTGAACTCTGTGGTTCTCGCCAACAATTCTGAGGCTGTTTTGCTCCCTCTGAATGAGCCTGTGCATGGAACCAAGAGGAGAAGCCAGATTCAAACTTACCTGGAGTACCACGGTGGCCCTGGAGTTCAGCATATCGCCCTTGCTTCTAATGATGTGTTGCGCACACTCAGAGAGATGCGCGCCAGAACCCCCATGGGAGGTTTCGAGTTCATGGCCCCACCACAGGCTAAGTACTACGAGGGCGTTAGAAGGATTGCTGGAGACGTGTTGAGCGAGGAGCAGATCAAGGAGTGCCAAGAGCTGGGTGTTCTTGTGGATAGGGATGACCAGGGCGTTCTGCTTCAAATTTTCACTAAGCCAGTGGGCGACCGCCCTACATTCTGGCTTGAGATGATTCAAAGAATCGGCTGCATGGAGAAGGATGAGGTTGGACAGGAGTACCAAAAGGGCGGATGCGGTGGCTTCGGAAAGGGTAACTTCAGCGAGTTGTTCAAGTCAATCGAGGACTACGAGAAGAGCCTCGAGGTGAAGCAGTCAGTGGTTGCCCAAAAGTCCTGA",Resistance evaluation,[1]; isoxaflutole 140 g ai/ha (2×),Moderately
same,Classification and statistics of the grade of pesticide damage Grade 0,[1]; isoxaflutole 140 g ai/ha (2×),6
same,Classification and statistics of the grade of pesticide damage Grade 1,[1]; isoxaflutole 140 g ai/ha (2×),8
same,Classification and statistics of the grade of pesticide damage Grade 2,[1]; isoxaflutole 140 g ai/ha (2×),2
same,Classification and statistics of the grade of pesticide damage Grade 3,[1]; isoxaflutole 140 g ai/ha (2×),0
same,Scores,[1]; isoxaflutole 140 g ai/ha (2×),25
same,Resistance evaluation,[1]; isoxaflutole 280 g ai/ha (4×),Poorly resistant
same,Classification and statistics of the grade of pesticide damage Grade 0,[1]; isoxaflutole 280 g ai/ha (4×),4
same,Classification and statistics of the grade of pesticide damage Grade 1,[1]; isoxaflutole 280 g ai/ha (4×),4
same,Classification and statistics of the grade of pesticide damage Grade 2,[1]; isoxaflutole 280 g ai/ha (4×),8
same,Classification and statistics of the grade of pesticide damage Grade 3,[1]; isoxaflutole 280 g ai/ha (4×),0
same,Scores,[1]; isoxaflutole 280 g ai/ha (4×),42
same,Resistance evaluation,[2]; mesotrione 210 g ai/ha (2×),Moderately
same,Classification and statistics of the grade of pesticide damage Grade 0,[2]; mesotrione 210 g ai/ha (2×),4
same,Classification and statistics of the grade of pesticide damage Grade 1,[2]; mesotrione 210 g ai/ha (2×),10
same,Classification and statistics of the grade of pesticide damage Grade 2,[2]; mesotrione 210 g ai/ha (2×),2
same,Classification and statistics of the grade of pesticide damage Grade 3,[2]; mesotrione 210 g ai/ha (2×),0
same,Scores,[2]; mesotrione 210 g ai/ha (2×),29
same,Resistance evaluation,[2]; mesotrione 420 g ai/ha (4×),Poorly resistant
same,Classification and statistics of the grade of pesticide damage Grade 0,[2]; mesotrione 420 g ai/ha (4×),0
same,Classification and statistics of the grade of pesticide damage Grade 1,[2]; mesotrione 420 g ai/ha (4×),2
same,Classification and statistics of the grade of pesticide damage Grade 2,[2]; mesotrione 420 g ai/ha (4×),13
same,Classification and statistics of the grade of pesticide damage Grade 3,[2]; mesotrione 420 g ai/ha (4×),1
same,Scores,[2]; mesotrione 420 g ai/ha (4×),65
